Experimental data taken from patent US20220315627A1.

Columns and labels:
[1] = biological target: C97ZA_SOSIP_L556P_T651F_M535N (HIV-1 strain C97ZA (clade C)); experiment: AlphaLISA on crude supernatant as in Example 3: normalized PGT145 signal
[2] = biological target: variant of repaired and stabilized Du422 construct (HIV161818) with the additional K655I substitution (HIV-1 strain Du422 (clade C)); experiment: assay not named in Example 11; trimer yield as defined in Example 3 (PGT145 AlphaLISA signal)
[3] = biological target: ConC_SOSIP with disulfide double substitution I204C, A433C (HIV-1 clade C consensus (artificial)); experiment: AlphaLISA on crude supernatant: PGT145 signal divided by total Env signal (His/Flag beads)
[4] = biological target: ConC_SOSIP with E64K, T316W double substitution (HIV-1 clade C consensus (artificial)); experiment: as above
[5] = biological target: variant of repaired and stabilized Du422 construct (HIV161818) with the additional K655I substitution (HIV-1 strain Du422 (clade C)); experiment: assay not named in Example 11; trimer percentage as defined in Example 3 (PGT145 AlphaLISA signal over total Env signal)

mAb PGT145 (antibody) was tested, and the trimer yield, fold over the C97ZA SOSIP backbone [1] was 5 fold, the trimer yield, fold over the variant of SEQ ID NO: 25 without K655I [2] was 1.3 fold and the percentage of trimer formation [3] was 43%. It also gave a percentage of trimer formation [4] of 15% and a trimer percentage, fold over the variant of SEQ ID NO: 25 without K655I [5] of 1.4 fold.
